Source: patent publication US20240279318A1 (published 2024)
Substitutions are numbered along the chain they refer to. Read-outs that look alike come from different tables or passages of the source. Each block holds one binder with its values, some of them ahead of it.

How the values were obtained:
[1] = molecular target: AFP158 loaded T2 cells (human;, UniProt P61769 21-119); test: flow cytometry
[2] = molecular target: AFP158/HLA-A*02:01 complex; test: SPR; head prints KD(1/s)
[3] = molecular target: AFP158/HLA-A*02:01 complex; test: SPR
[4] = molecular target: A*02:06; test: SPR
[5] = molecular target: A*02:11; test: SPR; low fitting confidence
[6] = molecular target: A*02:07; test: SPR; low fitting confidence
[7] = molecular target: A*02:02; test: SPR; low fitting confidence
[8] = molecular target: A*02:11; test: SPR
[9] = molecular target: A*02:03; test: SPR
[10] = molecular target: A*02:02; test: SPR
[11] = molecular target: A*02:05; test: SPR
[12] = molecular target: AFP158/HLA-A*02:01 complex; test: SPR; remark: listed apart in the source
[13] = molecular target: A*02:03; test: SPR; low fitting confidence
[14] = molecular target: A*02:02; test: SPR; low fitting confidence; remark: listed apart in the source
[15] = molecular target: A*02:05; test: SPR; low fitting confidence
[16] = molecular target: A*02:11; test: SPR; remark: listed apart in the source
[17] = molecular target: A*02:07; test: SPR
[18] = molecular target: A*02:06; test: SPR; remark: listed apart in the source
[19] = molecular target: A*02:07; test: SPR; low fitting confidence; remark: listed apart in the source
[20] = molecular target: A*02:11; test: SPR; low fitting confidence; remark: listed apart in the source
[21] = molecular target: A*02:03; test: SPR; remark: listed apart in the source

B2: AS170036 scFv-mIgG2aFc (Fc fusion)
chain: QLVLTQPSSVSGTPGQTVTISCAGTSSDVGSENYVSWYRQLPGTAPKLLIYQVNKRASGIADRFSGSKSGNTASMTISGLQSADEADYYCASYRSSDHNIVFGGGTHLTVLGGGGSGGGGSGGGGSAVQLVESGGGLVQPGGSLRLSCTASGFTFSSYAMSWVRQAPGKGLEWVSTINSGTGSPYYADSVKGRFTISRDNAKNTLYLQLNSLKTEDTAMYYCAKNFFDGSWFLGPPAMDYWGKGTLVTISS
EC50 [1]: 4.35 nM
Kd [3]: 387 nM

B4: AS167830 sdAb-mIgG2aFc (Fc fusion)
chain: QVKLVESGGGSVQAGGSLRLSCAASRSSEYMNRRFCMGWFRQASGKEREGVAVVYIGGGRTYYADSVKGRFTISQDNAKNTLYLQMNNLKPEDTAMYYCTADVDPYESSWSRDLGYWGQGTQVTVSS
EC50 [1]: 6.14 nM

B6: AS179732 scFv-mIgG2aFc (Fc fusion)
chain: NFMLTQPPSMSGSPRQSVTISCTGSSSNIGGNYVNWYQHLPGTAPKLLIYDNSNRASGVPERFSGSKSGSSASLTITGLQAEDEGDYYCASWDDSLSGAVFGGGTHLTVLGGGGSGGGGSGGGGSEVQLVESGGGLVQPGGSLRLSCAASGFTFLNYAMSWVRQAPGKGLEWVSSNSGAGSTYYSDSVKGRFTISRDYAKNVVYLQLNSLKTEDTGMYYCAKGTNVGSWSSLHYWGQGTQVTVSS
EC50 [1]: 1.15 nM
Kd [3]: 39.8 nM

B8: AS179732 (Fc fusion)
chain: B6 chain
Kd [8]: 656 nM
Kd [9]: 2140 nM
Kd [10]: 19000 nM
Kd [11]: 26200 nM
Kd [4]: 191 nM
Kd [6]: > 770 nM

B10: AS170036 VL1VH1-57M98Q (scFv)
scFv: QSALTQPRSVSGSPGQSVTISCAGTSSDVGSENYVSWYQQHPGKAPKLMIYQVNKRASGVPDRFSGSKSGNTASLTISGLQAEDEADYYCASYRSSDQNIVFGGGTKLTVLGGGGSGGGGSGGGGSEVQLVESGGGLVQPGGSLRLSCAASGFTFSSYAMSWVRQAPGKGLEWVSTINSGTGMPYYADSVKGRFTISRDNSKNTLYLQMNSLRAEDTAVYYCAKNFFDGSWFLGPPAMDYWGQGTLVTVSSHHHHHH
Kd [12]: 46 nM
Kd [19]: > 19000 nM
Kd [13]: > 43000 nM
Kd [14]: > 910 nM
Kd [15]: > 910 nM
Kd [16]: 360 nM
Kd [18]: 570 nM

B11: AS170036 VL1VH1-98I108A (scFv)
scFv: B10 scFv with Q98I, M183S, G234A
Kd [12]: 22 nM
Kd [20]: > 250 nM
Kd [19]: > 16000 nM
Kd [13]: > 31000 nM
Kd [14]: > 530 nM
Kd [15]: > 1100 nM
Kd [18]: 330 nM

B12: AS170036 VL1VH1 (scFv)
scFv: B10 scFv with Q98H, M183S
Kd [12]: 710 nM
Kd [19]: > 18000 nM
Kd [13]: > 2800 nM
Kd [14]: > 1500 nM
Kd [16]: 220 nM
Kd [18]: 5100 nM

B13: AS170036 VL1VH1-57K108S (scFv)
scFv: B10 scFv with Q98H, M183K, G234S
Kd [12]: 35 nM
Kd [13]: < 10 nM
Kd [14]: > 1400 nM
Kd [16]: 370 nM
Kd [17]: 10000 nM
Kd [18]: 500 nM

B14: AS170036 VL1VH1-56N108A (scFv)
scFv: B10 scFv with Q98H, G182N, M183S, G234A
Kd [12]: 27 nM
Kd [20]: > 500 nM
Kd [19]: > 9100 nM
Kd [14]: > 3700 nM
Kd [15]: > 2000 nM
Kd [21]: 6700 nM
Kd [18]: 320 nM

B15: AS167821 sdAb-mIgG2aFc (Fc fusion)
chain: QVRLVESGGGSVQAGGSLRLSCAASGRTYSTYCMGWFRQAPGKEREGVATIYIGSGRTYYVDSVKGRFTISQDNAKNTLYLQMNNLKPEDTAMYYCTADVDPYESSWSRGLGYWGQGTQVTVSS
EC50 [1]: 3.63 nM

Continued, values first:

EC50 [1]: 3.76 nM
Kd [2]: 100 nM
B1: AS190259 scFv-mIgG2aFc (Fc fusion)
chain: QSVVTQPSAVSVSLEETATITCQGGGYYVNWYQQKPGQAPVLVIYLNTNRPSGIPERFSASKSGGTATLTINGAQAEDEAAYYCQSADSSGNSAVFGGGTHLTVLGGGGSGGGGSGGGGSQVQLVQSGGGLVQPGGSLRLSCAASGFTFSSYAMSWVRQAPGKGLEWVSAINSGGGSTYYADSVKGRFTISRDNAKNTLYLQLNSLKTEDTAMYYCAKAASGYGGSWWGDATLDAWGQGTLVTVSS

EC50 [1]: 413 nM
B3: AS148691 scFv-mIgG2aFc (Fc fusion)
chain: DIQMTQSPSSLSASVGDRVTITCRASQSVSSAVAWYQQKPGKAPKLLIYSASSLYSGVPSRFSGSRSGTDFTLTISSLQPEDFATYYCQQYYGAYLITFGQGTKVEIKGGGGSGGGGSGGGGSEVQLVESGGGLVQPGGSLRLSCAASGFNLYYSSIHWVRQAPGKGLEWVASIYSSYGSTSYADSVKGRFTISADTSKNTAYLQMNSLRAEDTAVYYCARVGPGYYGIDYWGQGTLVTVSS

Kd [4]: 2770 nM
Kd [5]: > 14000 nM
Kd [6]: > 1200 nM
Kd [7]: > 71000 nM
B5: AS170036 VL1VH1 (Fc fusion)
chain: QSALTQPRSVSGSPGQSVTISCAGTSSDVGSENYVSWYQQHPGKAPKLMIYQVNKRASGVPDRFSGSKSGNTASLTISGLQAEDEADYYCASYRSSDHNIVFGGGTKLTVLGGGGSGGGGSGGGGSEVQLVESGGGLVQPGGSLRLSCAASGFTFSSYAMSWVRQAPGKGLEWVSTINSGTGSPYYADSVKGRFTISRDNSKNTLYLQMNSLRAEDTAVYYCAKNFFDGSWFLGPPAMDYWGQGTLVTVSS

EC50 [1]: 1.48 nM
Kd [3]: 80.4 nM
B7: AS179723 scFv-mIgG2aFc (Fc fusion)
chain: B6 chain with N1Q, F2A, M3G, S27N, S53K, A56P, R62Q, F63I, G98A, A99V

Kd [12]: 7 nM
Kd [13]: < 18 nM
Kd [14]: > 3100 nM
Kd [15]: > 1400 nM
Kd [16]: 290 nM
Kd [17]: 1500 nM
Kd [18]: 89 nM
B9: AS170036 VL1VH1-56Y98Q108S (scFv)
scFv: B10 scFv with G182Y, M183S, G234S
